From patent US20250327097A1, “ORGANISMS PRODUCING LESS CROTONIC ACID” (Global Bioenergies, priority 2021, published 2025) come the findings set out here.

Sequences and labels used below:
B1: I283T-N285P-N287T-Q290E-S322T-N388M-K394R-C430A-L432F-L434W-S436N-i443aT-dG462 (protein)
chain: MFLKSLREQINLLKRQGDLRIINRPVDSYLEAAAIIRRSTETKAPVPLMTNIKGYPGCSIVGGLAALSSNPEYPLSRVAMSLGLSTTASAQSIVQYLIDGLKKTPYLPVEIDSNSAPCKQNILRGEDASLAHFPIPQVHQHDGNRYVNTWGVFIVESPDGQWCNWSIQRVQYLNDRQMIALVFPSQHISDIWEEWVKIGKPMPYALVQGCEPIVPYIAGLPLLERNVNEAEYIGALYGKGIEVVKCETHDLRVPASSEVVIEGYFAITREGVEGPFGEFAGYTPPETSLEPILSITAISWQDDPIWPVVAEGKPVDEYHTCTGIGDAAAIQNVLLTANLPVSFVWVPLYSACHLMIVSINRHWRQTHPDLTSEQLTKKVGDVIHQTRMSIKLPRIVVLDDDVDPADTESLLWALATRIHPERKRYFYESAIFPWLNCYSEEERHNRKGKRVIIDALLPENHGAISSFDYAYPDDIKQRVLMHWETDFSHD
B2: I283T-N285P-N287T-Q290E-S322T-N388M-K394R-C430A-i431aG-L432F-L434W-S436N-dG462 (protein)
chain: B1 chain
B3: I283T-N285P-N287T-Q290E-S322T-N388M-K394R-C430A-L432F-L434W-S436N-i447aP-dG462 (protein)
chain: B1 chain
B4: I283T-N285P-N287T-Q290E-S322T-N388M-K394R-C430A-L432F-L434W-S436N-i444aN-dG462 (protein)
chain: B1 chain
B5: I283T-N285P-N287T-Q290E-S322T-N388M-K394R-C430A-L432F-L434W-S436N-i444aL-dG462 (protein)
chain: B1 chain
B6: I283T-N285P-N287T-Q290E-S322T-N388M-K394R-C430A-i431aL-L432F-L434W-S436N-dG462 (protein)
chain: B1 chain
B7: V382L-N388M-K394R-C430N-L432F-L434W-S436N (protein)
chain: B1 chain with T283I, P285N, T287N, E290Q, T322S, V382L, A430N
B8: I283T-N285P-N287T-Q290E-S322T-N388M-K394R-C430A-L432F-L434W-S436N-i444aV-dG462 (protein)
chain: B1 chain
B9: I283T-N285P-N287T-Q290E-S322T-N388M-K394R-C430A-L432F-L434W-S436N-i444aE-dG462 (protein)
chain: B1 chain
B10: I283T-N285P-N287T-Q290E-S322T-N388M-K394R-C430A-L432F-L434W-S436N-i447aY-dG462 (protein)
chain: B1 chain
B11: V382A-N388M-K394R-C430N-L432F-L434W-S436N (protein)
chain: B1 chain with T283I, P285N, T287N, E290Q, T322S, V382A, A430N
B12: I283T-N285P-N287T-Q290E-S322T-N388M-K394R-C430A-L432F-L434W-S436N-i444aT-dG462 (protein)
chain: B1 chain
B13: I283T-N285P-N287T-Q290E-S322T-N388M-K394R-C430A-L432F-L434W-S436N-i444aP-dG462 (protein)
chain: B1 chain
B14: I283T-N285P-N287T-Q290E-S322T-N388M-K394R-C430A-L432F-L434W-S436N-i445aQ-dG462 (protein)
chain: B1 chain
B15: I283T-N285P-N287T-Q290E-S322T-N388M-K394R-C430A-L432F-L434W-S436N-i447aL-dG462 (protein)
chain: B1 chain
B16: I283T-N285P-N287T-Q290E-S322T-N388M-K394R-C430A-L432F-L434W-S436N-i447aK-dG462 (protein)
chain: B1 chain
B17: I283T-N285P-N287T-Q290E-S322T-N388M-K394R-C430A-L432F-L434W-S436N-i444aG-dG462 (protein)
chain: B1 chain
B18: I283T-N285P-N287T-Q290E-S322T-N388M-K394R-C430A-L432F-L434W-S436N-i448aS-dG462 (protein)
chain: B1 chain
B19: I283T-N285P-N287T-Q290E-S322T-N388M-K394R-C430A-L432F-L434W-S436N-i444aH-dG462 (protein)
chain: B1 chain
B20: I283T-N285P-N287T-Q290E-S322T-N388M-K394R-C430A-L432F-L434W-S436N-i444aR-dG462 (protein)
chain: B1 chain
B21: I283T-N285P-N287T-Q290E-S322T-N388M-K394R-C430A-L432F-L434W-S436N-i444aS-dG462 (protein)
chain: B1 chain
B22: I283T-N285P-N287T-Q290E-S322T-N388M-K394R-C430A-L432F-L434W-S436N-i444aK-dG462 (protein)
chain: B1 chain

Substitutions are numbered along the chain they refer to. Numbers in names are those of the source.

This assay deals with 3-methylcrotonic acid. The assay is classed as biochemical, Yersinia frederiksenii. Also on record: key: “+” representing a low increase in activity; “++++” representing a high increase in activity.
On to B1, for which the “Activity relative to WT” value is “++++”.
With B2, the “Activity relative to WT” value is on record as “++++”.
The same measure for B3: “++++”; for B4: “++++”.
As for B5, the entry is “++++”; as for B6, “++++”.
B7: the “Activity relative to WT” value was “+”.
On to B8, for which the “Activity relative to WT” value is listed as “++++”.
Regarding B9, the “Activity relative to WT” value is reported as “++++”.
As for B10, the entry is “++++”; as for B11, “+”.
For the molecule B12, the “Activity relative to WT” value is listed as “++++”.
B13: the “Activity relative to WT” value was “++++”.
As for B14, the entry is “++++”; as for B15, “++++”; as for B16, “++++”.
In the case of B17, the “Activity relative to WT” value is reported as “++++”.
As for B18, the “Activity relative to WT” value is given as “++++”.
As for B19, the “Activity relative to WT” value was “++++”.
As for B20, the entry is “++++”; as for B21, “++++”.
As for B22, the entry is “++++”.
